What was measured:
Type in all cases: physicochemical
[1] = Amyloid aggregation propensity by thioflavin-T (ThT) fluorescence
Text: (§1) The pH-sensitive, reversible amyloid aggregation of GLP-1 and related gastrointestinal hormones is an inherent and functionally critical property. They are stored as condensed amyloids at low pH before being released as monomeric, folded hormones at neutral pH. At the same time, the exact evolutionary origin[45] of Ex4 with its functional role as a salivary toxin in lizards remains unknown.[45],[46] The difference in secretion pathways is notable: GLP-1 is secreted into the bloodstream, while Ex4 is secreted into the alimentary canal. […] In terms of structure, the polyproline tail of the Ex4 Tc fold effectively shields the −^21LFIEWL^26− aggregation-prone region[40] (APR) of the facing α-helix, while the similar −^21EFIAWL^26− helical segment of GLP-1 remains unshielded. We therefore investigated the short- and long-term aggregation behavior of GLP-1, Ex4, and related Tc5b-modified variants using an amyloid-specific thioflavin-T fluorescence assay, CD spectroscopy, and atomic force microscopy (AFM) at 37 °C (Figure 5).
The exact peptide content percentage of the lyophilized peptides was determined by using a Nanodrop Lite UV–vis spectrophotometer at 280 nm. […] The exact concentration was determined by UV spectrometry using a Jasco V-660 spectrophotometer (Tokyo, Japan) at 412 nm with an extinction coefficient of 31.600 M^–1 cm^–1. […] A SpectraMax iD3 microplate reader (Molecular Devices, Sunnyvale, CA, USA) was used to control the experimental conditions (37 °C, orbital shaking at medium intensity) and to collect fluorescence data over 3 days. […] The emitted fluorescence was measured from the bottom of the microplate with medium photomultiplier tube sensitivity (PMT) settings and an integration time of 400 ms. […] The average fluorescence intensity of the peptide-free ThT sample was used as a background and subtracted from the average fluorescence intensity of the peptide-containing samples at each measurement point. The mean and standard deviation of ThT fluorescence intensities were plotted as a function of time using Origin software version 2022b and Excel software version 2020.

[2] = Long-term aggregation monitored by CD spectroscopy; conditions: pH 7.4, 1 mg mL-1, 150 mM NaCl, 37 °C, 500 rpm, two weeks
Text: as §1, with “(APR) of the facing α-helix, while the similar −^21EFIAWL^26− helical segment of GLP-1 remains unshielded.” left out
Circular dichroism (CD) experiments were performed using JASCO J-810 and J-1500 spectropolarimeters. […] Melting curves were recorded in the temperature range of 5–85 °C in 5 °C increments. […] Exact concentrations were determined by using a Nanodrop Lite UV–vis spectrophotometer at 280 nm. To determine the folded fraction (F%), the temperature-dependent spectrum collection of 65 CD curves was analyzed using Convex Constraint Analysis Plus software.[59] […]

[3] = Atomic force microscopy of aggregation samples
Experimental: Ten μL aliquots were taken from the ThT and CD measurement samples at the end point of the experiments, after 3 days and 2 weeks of agitation, respectively. These aliquots were then spread on freshly cleaved mica surfaces and dried overnight in a vacuum desiccator. In some cases, the spread samples were washed with pH-adjusted water to remove any salts that might crystallize during the drying process and potentially complicate the AFM micrograph recording. The surface morphology was analyzed using a FlexAFM microscope system (Nanosurf AG, Liestal, Switzerland) operating in dynamic mode, controlled by Nanosurf control software C3000 version 3.10.4. Micrographs were taken using Tap150GD-G cantilevers (BudgetSensors Ltd., Sofia, Bulgaria) with a nominal tip radius of less than 10 nm. Prescreening was run before data collection to avoid significant height variations in the surface topology. Data collection was performed at different locations within each sample. Images were recorded with a maximum window size of 10 × 10 μm at a resolution of 512 pixels/line. Gwyddion 2.62 software was used to process the AFM data and generate the images.

Exendin-4 [Ex4]
amyloid formation / aggregation propensity ([1]; ThT, CD and AFM, 37 °C, acidic and neutral pH, 1 and 5 mg mL–1): did not exhibit any evidence of amyloid formation

glucagon-like peptide-1 [GLP-1]
thioflavin-T response under acidic conditions ([1]; ThT fluorescence, pH 4.2–4.5, 1 and 5 mg mL–1, 37 °C, orbital shaking, 3 days, triplicate): exceeded the limit of detection range | time to amyloid fibril formation under acidic conditions ([1]; acidic conditions, concentration-dependent, 37 °C): ≤ 1 days | amyloid formation under neutral pH conditions [2]: forms amyloid assemblies under neutral pH conditions, albeit in two weeks | fibril formation by AFM ([3]; 72 h agitated acidic ThT samples, 1 mg mL–1): reveal fibril formation | diameter of twisted amyloid fibrils ([3]; AFM, acidic conditions): 5–10 nm
